Data reported in article PMC10785082 (ACS Omega, 2023).

Experiments:
USP3 ZnF-UBD = target: T1, USP3 ZnF-UBD (Homo sapiens, UniProt Q9Y6I4); assay: SPR binding to USP3 ZnF-UBD
T1 sequence (Q9Y6I4 1-131): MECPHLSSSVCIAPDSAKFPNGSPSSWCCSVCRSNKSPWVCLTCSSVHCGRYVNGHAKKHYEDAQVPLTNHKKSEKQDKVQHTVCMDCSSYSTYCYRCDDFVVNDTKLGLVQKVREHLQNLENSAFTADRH

E3 ligase CDC20 = settings: read-out: KD for CDC20; cited from earlier work
USP49 ZnF-UBD = target: T2, USP49 ZnF-UBD (Homo sapiens, UniProt Q70CQ1); assay: SPR binding to USP49 ZnF-UBD
T2 sequence (Q70CQ1 1-115): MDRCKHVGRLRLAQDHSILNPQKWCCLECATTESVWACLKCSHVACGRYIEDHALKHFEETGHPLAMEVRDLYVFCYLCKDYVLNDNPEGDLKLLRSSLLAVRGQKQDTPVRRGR

USP33 ZnF-UBD = target: T3, USP33 ZnF-UBD (Homo sapiens, UniProt Q8TEY7); assay: SPR binding to USP33 ZnF-UBD
T3 sequence (Q8TEY7 29-134): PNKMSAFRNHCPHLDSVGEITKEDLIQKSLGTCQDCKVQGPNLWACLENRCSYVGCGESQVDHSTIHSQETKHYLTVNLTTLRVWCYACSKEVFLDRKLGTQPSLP

BRAP ZnF-UBD = target: T4, BRAP ZnF-UBD (Homo sapiens, UniProt Q7Z569); assay: SPR binding to BRAP ZnF-UBD
T4 sequence (Q7Z569 304-390): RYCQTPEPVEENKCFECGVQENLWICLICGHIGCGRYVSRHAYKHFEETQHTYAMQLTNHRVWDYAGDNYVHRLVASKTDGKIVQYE

HDAC6 ZnF-UBD = target: T5, HDAC6 ZnF-UBD (Homo sapiens, UniProt Q9UBN7); assay: SPR binding to HDAC6 ZnF-UBD
T5 sequence (Q9UBN7 1109-1215): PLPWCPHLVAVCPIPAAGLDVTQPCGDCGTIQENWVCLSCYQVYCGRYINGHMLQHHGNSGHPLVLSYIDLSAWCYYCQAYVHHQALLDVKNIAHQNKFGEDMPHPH

USP20 ZnF-UBD = USP20 ZnF-UBD (Homo sapiens, UniProt Q9Y2K6); assay: SPR binding to USP20 ZnF-UBD
USP20 ZnF-UBD, sequence (Q9Y2K6 1-141): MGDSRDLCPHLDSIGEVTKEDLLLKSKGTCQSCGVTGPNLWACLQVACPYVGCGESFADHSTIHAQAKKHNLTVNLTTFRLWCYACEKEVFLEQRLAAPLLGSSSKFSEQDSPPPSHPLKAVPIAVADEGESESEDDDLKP

USP16 ZnF-UBD = USP16 ZnF-UBD (Homo sapiens, UniProt Q9Y5T5); assay: SPR binding to USP16 ZnF-UBD
USP16 ZnF-UBD, sequence (Q9Y5T5 25-185): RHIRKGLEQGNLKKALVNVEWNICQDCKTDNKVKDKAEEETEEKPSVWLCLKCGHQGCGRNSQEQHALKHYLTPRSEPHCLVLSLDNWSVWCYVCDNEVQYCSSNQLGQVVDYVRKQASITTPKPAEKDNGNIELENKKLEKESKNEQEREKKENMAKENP

USP39 ZnF-UBD = target: T6, USP39 ZnF-UBD (Homo sapiens, UniProt Q53GS9); assay: SPR binding to USP39 ZnF-UBD
T6 sequence (Q53GS9 84-194): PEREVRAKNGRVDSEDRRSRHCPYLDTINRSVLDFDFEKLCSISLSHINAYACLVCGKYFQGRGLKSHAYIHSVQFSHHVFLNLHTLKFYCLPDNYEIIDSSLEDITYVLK

USP51 ZnF-UBD = target: T7, USP51 ZnF-UBD (Homo sapiens, UniProt Q70EK9); assay: SPR binding to USP51 ZnF-UBD
T7 sequence (Q70EK9 176-305): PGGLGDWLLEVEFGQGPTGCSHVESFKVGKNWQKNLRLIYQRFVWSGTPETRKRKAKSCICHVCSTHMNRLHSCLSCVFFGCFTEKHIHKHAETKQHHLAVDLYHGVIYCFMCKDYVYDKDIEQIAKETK

USP5 ZnF-UBD = target: T8, USP5 ZnF-UBD (Homo sapiens, UniProt P45974); assay: SPR binding to USP5 ZnF-UBD
T8 sequence (P45974 171-290): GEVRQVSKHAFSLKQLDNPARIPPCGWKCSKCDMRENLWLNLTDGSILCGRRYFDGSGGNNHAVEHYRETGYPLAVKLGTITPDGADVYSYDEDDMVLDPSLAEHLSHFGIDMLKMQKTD

USP13 ZnF-UBD = target: T9, USP13 ZnF-UBD (Homo sapiens, UniProt Q92995); assay: SPR binding to USP13 ZnF-UBD
T9 sequence (Q92995 183-307): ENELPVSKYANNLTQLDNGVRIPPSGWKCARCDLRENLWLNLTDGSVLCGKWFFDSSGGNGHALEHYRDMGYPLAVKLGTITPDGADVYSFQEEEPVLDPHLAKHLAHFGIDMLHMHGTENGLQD

O=C(O)CNc1ncnc2ccccc12 [Compound 25]
Kd (USP3 ZnF-UBD; KD (µM) USP3): 191 µM

Cc1ncc([N+](=O)[O-])n1CCOC(=O)NC(Nc1ncccn1)C(Cl)(Cl)Cl (stereo not shown) [Apcin]
Kd (E3 ligase CDC20): 10 µM

Ub-RGGdel: C-terminal RGG-deleted Ub construct, negative control in the SPR assay
KD (µM) USP49 (USP49 ZnF-UBD): No binding | KD (µM) USP33 (USP33 ZnF-UBD): No binding | KD (µM) BRAP (BRAP ZnF-UBD): No binding | KD (µM) HDAC6 (HDAC6 ZnF-UBD): No binding | KD (µM) USP20 (USP20 ZnF-UBD): No binding | KD (µM) USP16 (USP16 ZnF-UBD): No binding | KD (µM) USP39 (USP39 ZnF-UBD): No binding | KD (µM) USP51 (USP51 ZnF-UBD): No binding | KD (µM) USP5 (USP5 ZnF-UBD): No binding | KD (µM) USP3 (USP3 ZnF-UBD): No binding | KD (µM) USP13 (USP13 ZnF-UBD): No binding
